# Biological target: wild type tau (human, UniProt P10636)
# Test: ELISA
# wild type tau, sequence (P10636 2-758): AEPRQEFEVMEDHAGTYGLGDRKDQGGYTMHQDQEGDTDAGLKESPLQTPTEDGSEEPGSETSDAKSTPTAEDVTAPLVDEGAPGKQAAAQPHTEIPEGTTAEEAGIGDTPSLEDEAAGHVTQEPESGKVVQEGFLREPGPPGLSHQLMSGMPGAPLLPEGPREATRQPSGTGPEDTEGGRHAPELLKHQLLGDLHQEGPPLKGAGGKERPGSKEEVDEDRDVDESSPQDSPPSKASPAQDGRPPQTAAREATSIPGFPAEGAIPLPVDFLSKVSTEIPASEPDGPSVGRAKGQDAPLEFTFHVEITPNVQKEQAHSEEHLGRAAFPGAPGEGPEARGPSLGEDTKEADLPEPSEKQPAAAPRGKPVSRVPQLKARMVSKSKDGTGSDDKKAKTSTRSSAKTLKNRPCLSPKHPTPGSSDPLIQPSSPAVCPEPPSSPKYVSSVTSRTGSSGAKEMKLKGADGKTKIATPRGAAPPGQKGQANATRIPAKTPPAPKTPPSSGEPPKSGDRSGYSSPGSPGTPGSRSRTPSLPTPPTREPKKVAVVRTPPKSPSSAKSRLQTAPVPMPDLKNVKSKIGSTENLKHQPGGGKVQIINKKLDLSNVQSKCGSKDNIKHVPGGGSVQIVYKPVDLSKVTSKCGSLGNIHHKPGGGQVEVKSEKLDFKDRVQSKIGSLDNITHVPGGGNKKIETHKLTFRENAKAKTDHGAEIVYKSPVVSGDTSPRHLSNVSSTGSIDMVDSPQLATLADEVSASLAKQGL
row,Binder,binding result
1,"V0024 (antibody, V domains shown, non-phosphorylated) VH: QVQLQQPGTELVKPGASVKLSCKASGYTFTRFWMHWVKQRPGQGLEWIGNINPNNGGTDNNERFKSKATLTVDRSSSTAYMQLSSLTSEDSAVYYCARGTGTGAMDYWGQGTSVTVSS VL: DVVMTQTPLSLPVSLGDQASISCRSSQSLVHSNGNTHLYWYLQKPGQSPKLLIYRVSSRFSGVPDRFSGSGSGTDFTLKISRVEAEDLGVYFCFQGTHVPRTFGGGTKLEIK",no binding
2,"V0004 (antibody, V domains shown, non-phosphorylated) VH: QVQLQQPGAELVKPGASVKLSCKASDYTFTNYWMHWVKQRPGRGLEWIGRIDPNSGGTRYNEKFKNKATLTVDKPSSTAYMHLSSLTSEDSAVYYCAGDFDVWGTGTTVTVSS VL: DIQMTQSPASLSASVGETVTITCRASGNIHNYLAWYQQRQGKSPQLLVYNAKTLPDGVPSRFSGSGSGTQYSLKINSLQPEDFGSYCCQHFWSTPLTFGAGTKLELK",no binding
3,"V0009 (antibody, V domains shown, non-phosphorylated) VH: EVQLVESGGALVQPGGSLSLSCAASGFTFTDYYMSWVRQPPGKALEWLALIRNKAKGFTTEYSASVKGRFTISRDNSQSILLFQMNDLRADDSATYYCVRDINYWGQGTTLTVSS VL: not shown",no binding
